Experiment [1] deals with BG505.T332N.SOSIP.664.113C.429GCG gp140 trimer (HIV-1 BG505). Nature of the experiment: SPR.
In experiment [2] the target is BG505.T332N.SOSIP.664.113C.431GCG gp140 trimer (HIV-1 BG505). Nature of the experiment: SPR.

The values that follow come from paper PMC6007033.

Regarding two-domain soluble CD4 (receptor), the reduction in binding affinity against the unmutated trimer in experiment [1] and in experiment [2] was 3 log throughout.
